From patent US5985836A, “Alpha-1 proteinase inhibitor binding peptides” (Bayer Corporation, priority 1998, dated 1999)
Ends that are not written are not given here.

Target: T1, A1PI (Homo sapiens, UniProt P01009)
T1 construct: Human plasma is currently the only approved source of therapeutic AlPI
Test: A1PI binding on peptide-resin column, injection of 1 mg A1PI in equilibration buffer
Conditions: for % of Total A1PI Eluted by Fraction (Based on Absorbance at 280 nm), 1M NaCl / % of Total A1PI Eluted by Fraction (Based on Absorbance at 280 nm), 2% Acetic Acid / % of Total A1PI Eluted by Fraction (Based on Absorbance at 280 nm), Flowthrough: 1 mg A1PI; for Percent A1PI Eluted by Fraction Based on Absorbance at 280 nm, 1M NaCl / Percent A1PI Eluted by Fraction Based on Absorbance at 280 nm, 2% Acetic Acid / Percent A1PI Eluted by Fraction Based on Absorbance at 280 nm, Flowthrough / Percent A1PI Eluted by Fraction, 1M NaCl / Percent A1PI Eluted by Fraction, 2% Acetic Acid / Percent A1PI Eluted by Fraction, Flowthrough: 1 mg A1PI in equilibration buffer; for Percent AlPI Eluted by Fraction, 1M NaCl / Percent AlPI Eluted by Fraction, 2% Acetic Acid / Percent AlPI Eluted by Fraction, Flowthrough: sequence order, 1 mg AlPI
Experimental: Confirmatory binding assays were performed in a column chromatographic format on a microbore HPLC using individual peptide sequences synthesized directly onto the Toyopearl 650 M Chelate resin which had been modified with Totda followed by an alanine residue (A-Totda-Toyopearl), at a final substitution density of 0.1 mmole/g resin. The resin was packed into 0.4×5 cm columns (Thomson, Springfield, Va.) and tested on the Michrom HPLC system (Michrom BioResources, Auburn, Calif.). The elution program for all trials utilized the following method. The column was pre-equilibrated with equilibration buffer (as above). 1 ml of sample was injected and allowed sufficient time to flowthrough the column using equilibration buffer. The column was then washed with step elutions of 1M NaCl and 3M NaCl in equilibration buffer. The column was exposed to equilibration buffer with 0.1M NaCl. Any remaining protein was eluted with elution buffer (2% by volume glacial acetic acid in water).
A Gilson FC204 fraction collector at the HPLC outlet collected individual eluates for further analysis. Fractions collected from the 2% acetic acid eluates were neutralized with 2M Tris, pH 10.5 to bring the pH to neutrality. The protein samples were reconstituted in equilibration buffer unless otherwise stated. The samples were analyzed by the integration of the absorbance at 280 nm or by immunonephelometry. The specific method of determination is presented for each figure.
Tables 2 and 3 present the elution profiles for 19 sequences based on the injection of 1 mg AlPI in equilibration buffer at 4° C. and 20° C., respectively. The columns were run at a constant flow rate of865 μl/min (413 cm/hr) or 523 μl/min (250 cm/hr). No dependence of the elution profile with flow rate was found. The Percent AlPI Eluted by Fraction represents the amount eluted in the flowthrough, 1M NaCl wash, and 2% acetic acid fractions relative to the total AlPI eluted. The percentages are based on either the integration of the peak areas at […]

[1] = VIWLVR N-terminal point mutations, 4° C.

T1 sequence (P01009 25-418): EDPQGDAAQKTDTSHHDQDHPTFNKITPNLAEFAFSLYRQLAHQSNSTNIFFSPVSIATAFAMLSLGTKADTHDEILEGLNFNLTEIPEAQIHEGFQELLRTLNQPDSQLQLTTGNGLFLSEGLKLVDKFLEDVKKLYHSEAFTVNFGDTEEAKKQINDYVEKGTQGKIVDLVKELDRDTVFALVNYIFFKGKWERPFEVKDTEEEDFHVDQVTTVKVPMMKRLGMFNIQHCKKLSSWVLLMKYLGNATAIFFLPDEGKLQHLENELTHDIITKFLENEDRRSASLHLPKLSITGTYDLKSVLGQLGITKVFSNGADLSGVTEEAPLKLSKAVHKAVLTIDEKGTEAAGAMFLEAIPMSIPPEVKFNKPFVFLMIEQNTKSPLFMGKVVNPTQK

| % of Total A1PI Eluted by Fraction (Based on Absorbance at 280 nm), 1M NaCl [1] [%] | % of Total A1PI Eluted by Fraction (Based on Absorbance at 280 nm), 2% Acetic Acid [1] [%] | % of Total A1PI Eluted by Fraction (Based on Absorbance at 280 nm), Flowthrough [1] [%] | % of Total A1PI Eluted by Fraction (Based on Absorbance at 280 nm), 1M NaCl (VIFLVR point mutations, 4° C.) [%] | % of Total A1PI Eluted by Fraction (Based on Absorbance at 280 nm), 2% Acetic Acid (VIFLVR point mutations, 4° C.) [%] | % of Total A1PI Eluted by Fraction (Based on Absorbance at 280 nm), Flowthrough (VIFLVR point mutations, 4° C.) [%] | Substance | further results |
| --- | --- | --- | --- | --- | --- | --- | --- |
| 87 | 13 | 0 | – | – | – | SHWLVR: point mutation of VIWLVR on Ala-Totda-Toyopearl (not fully specified (C-terminus)) | – |
| – | – | – | 4 | 40 | 56 | V I F L Y R: point mutation of VIFLVR, position 5 (VIFLYR) | % of Total A1PI Eluted by Fraction (Based on Absorbance at 280 nm), 1M NaCl (VIFLVR point mutations, 20° C.): 3%; % of Total A1PI Eluted by Fraction (Based on Absorbance at 280 nm), 2% Acetic Acid (VIFLVR point mutations, 20° C.): 20%; % of Total A1PI Eluted by Fraction (Based on Absorbance at 280 nm), Flowthrough (VIFLVR point mutations, 20° C.): 77% |
| 43 | 5 | 52 | – | – | – | NSWLVR: point mutation of VIWLVR on Ala-Totda-Toyopearl (not fully specified (C-terminus)) | – |
| 92 | 8 | 0 | – | – | – | HNWLVR: point mutation of VIWLVR on Ala-Totda-Toyopearl (not fully specified (C-terminus)) | – |
| 10 | 0 | 90 | – | – | – | DSWLVR: point mutation of VIWLVR on Ala-Totda-Toyopearl (not fully specified (C-terminus)) | – |
| – | – | – | – | – | – | IIe Lys Arg Tyr Tyr Leu (IKRYYL) | Percent A1PI Eluted by Fraction Based on Absorbance at 280 nm, 1M NaCl (4° C.): 97%; Percent A1PI Eluted by Fraction Based on Absorbance at 280 nm, 2% Acetic Acid (4° C.): 3%; Percent A1PI Eluted by Fraction Based on Absorbance at 280 nm, Flowthrough (4° C.): 0%; Percent A1PI Eluted by Fraction, 1M NaCl (20° C.): 92%; Percent A1PI Eluted by Fraction, 2% Acetic Acid (20° C.): 8%; Percent A1PI Eluted by Fraction, Flowthrough (20° C.): 0% |
| 86 | 14 | 0 | – | – | – | HHWLVR: point mutation of VIWLVR on Ala-Totda-Toyopearl (not fully specified (C-terminus)) | – |
| – | – | – | – | – | – | WSSKRY | Percent A1PI Eluted by Fraction Based on Absorbance at 280 nm, 1M NaCl (4° C.): 91%; Percent A1PI Eluted by Fraction Based on Absorbance at 280 nm, 2% Acetic Acid (4° C.): 9%; Percent A1PI Eluted by Fraction Based on Absorbance at 280 nm, Flowthrough (4° C.): 0%; Percent A1PI Eluted by Fraction, 1M NaCl (20° C.): 97%; Percent A1PI Eluted by Fraction, 2% Acetic Acid (20° C.): 3%; Percent A1PI Eluted by Fraction, Flowthrough (20° C.): 0% |
| – | – | – | 6 | 10 | 84 | D I F L V R: point mutation of VIFLVR, position 1 (DIFLVR) | % of Total A1PI Eluted by Fraction (Based on Absorbance at 280 nm), 1M NaCl (VIFLVR point mutations, 20° C.): 9%; % of Total A1PI Eluted by Fraction (Based on Absorbance at 280 nm), 2% Acetic Acid (VIFLVR point mutations, 20° C.): 21%; % of Total A1PI Eluted by Fraction (Based on Absorbance at 280 nm), Flowthrough (VIFLVR point mutations, 20° C.): 70% |
| 30 | 0 | 70 | – | – | – | HDWLVR: point mutation of VIWLVR on Ala-Totda-Toyopearl (not fully specified (C-terminus)) | – |
| – | – | – | 2 | 22 | 76 | Ac-V I F L V R: N-terminal acetylated sequence Ac-VIFLVR (listed under SEQ ID No:37) (not fully specified (C-terminus); printed as Ac-VIFLVR) | % of Total A1PI Eluted by Fraction (Based on Absorbance at 280 nm), 1M NaCl (VIFLVR point mutations, 20° C.): 0%; % of Total A1PI Eluted by Fraction (Based on Absorbance at 280 nm), 2% Acetic Acid (VIFLVR point mutations, 20° C.): 0%; % of Total A1PI Eluted by Fraction (Based on Absorbance at 280 nm), Flowthrough (VIFLVR point mutations, 20° C.): 100% |
| 94 | 6 | 0 | – | – | – | SSWLVR: point mutation of VIWLVR on Ala-Totda-Toyopearl (not fully specified (C-terminus)) | – |
| 0 | 0 | 100 | – | – | – | NDWLVR: point mutation of VIWLVR on Ala-Totda-Toyopearl (not fully specified (C-terminus)) | – |
| 13 | 4 | 83 | – | – | – | NNWLVR: point mutation of VIWLVR on Ala-Totda-Toyopearl (not fully specified (C-terminus)) | – |
| – | – | – | 25 | 75 | 0 | N I F L V R: point mutation of VIFLVR, position 1 (NIFLVR) | – |
| 9 | 1 | 90 | – | – | – | DNWLVR: point mutation of VIWLVR on Ala-Totda-Toyopearl (not fully specified (C-terminus)) | – |
| – | – | – | 25 | 75 | 0 | V I F L A R: point mutation of VIFLVR, position 5 (VIFLAR) | % of Total A1PI Eluted by Fraction (Based on Absorbance at 280 nm), 1M NaCl (VIFLVR point mutations, 20° C.): 0%; % of Total A1PI Eluted by Fraction (Based on Absorbance at 280 nm), 2% Acetic Acid (VIFLVR point mutations, 20° C.): 25%; % of Total A1PI Eluted by Fraction (Based on Absorbance at 280 nm), Flowthrough (VIFLVR point mutations, 20° C.): 75% |
| – | – | – | – | – | – | Ac-RVLFIV: N-terminal acetylated Ac-RVLFIV (listed under SEQ ID No:61) | Percent AlPI Eluted by Fraction, 1M NaCl (4° C.): 11%; Percent AlPI Eluted by Fraction, 2% Acetic Acid (4° C.): 13%; Percent AlPI Eluted by Fraction, Flowthrough (4° C.): 76%; Percent AlPI Eluted by Fraction, 1M NaCl (20° C.): 31%; Percent AlPI Eluted by Fraction, 2% Acetic Acid (20° C.): 50%; Percent AlPI Eluted by Fraction, Flowthrough (20° C.): 19% |
| – | – | – | 66 | 34 | 0 | V K F L V R: point mutation of VIFLVR, position 2 (VKFLVR) | % of Total A1PI Eluted by Fraction (Based on Absorbance at 280 nm), 1M NaCl (VIFLVR point mutations, 20° C.): 49%; % of Total A1PI Eluted by Fraction (Based on Absorbance at 280 nm), 2% Acetic Acid (VIFLVR point mutations, 20° C.): 51%; % of Total A1PI Eluted by Fraction (Based on Absorbance at 280 nm), Flowthrough (VIFLVR point mutations, 20° C.): 0% |
| – | – | – | – | – | – | V I R L V R: VIWLVR with Trp at position 3 replaced by Arg (VIRLVR) | % of Total A1PI Eluted by Fraction (Based on Absorbance at 280 nm), 1M NaCl (Trp position mutations, 4° C.): 90%; % of Total A1PI Eluted by Fraction (Based on Absorbance at 280 nm), 2% Acetic Acid (Trp position mutations, 4° C.): 10%; % of Total A1PI Eluted by Fraction (Based on Absorbance at 280 nm), Flowthrough (Trp position mutations, 4° C.): 0%; % of Total A1PI Eluted by Fraction (Based on Absorbance at 280 nm), 1M NaCl (Trp position mutations, 20° C.): 45%; % of Total A1PI Eluted by Fraction (Based on Absorbance at 280 nm), 2% Acetic Acid (Trp position mutations, 20° C.): 55%; % of Total A1PI Eluted by Fraction (Based on Absorbance at 280 nm), Flowthrough (Trp position mutations, 20° C.): 0% |
| – | – | – | 35 | 65 | 0 | V H F L V R: point mutation of VIFLVR, position 2 (VHFLVR) | – |
| – | – | – | 55 | 45 | 0 | V A F L V R: point mutation of VIFLVR, position 2 (VAFLVR) | % of Total A1PI Eluted by Fraction (Based on Absorbance at 280 nm), 1M NaCl (VIFLVR point mutations, 20° C.): 8%; % of Total A1PI Eluted by Fraction (Based on Absorbance at 280 nm), 2% Acetic Acid (VIFLVR point mutations, 20° C.): 92%; % of Total A1PI Eluted by Fraction (Based on Absorbance at 280 nm), Flowthrough (VIFLVR point mutations, 20° C.): 0% |
| – | – | – | 39 | 61 | 0 | V R F L V R: point mutation of VIFLVR, position 2 (VRFLVR) | – |
| – | – | – | 3 | 56 | 40 | V I F L F R: point mutation of VIFLVR, position 5 (VIFLFR) | – |
